Target: Litopenaeus vannamei IRF, endogenous in shrimp tissues (Litopenaeus vannamei (endogenous in intestines and hepatopancreas))
Assay: native gel or EMSA; native-PAGE of shrimp tissue samples (intestines, hepatopancreas; hemocytes as negative control) with western-blot, beta-actin as control; also hepatopancreas at times after WSSV or poly (I:C) treatment

stoichiometry N: 2
Substance: Litopenaeus vannamei IRF, endogenous in shrimp tissues (natural protein)

— PMC4602278
